Data reported in the supplement of paper PMC9170038.

System: MS2 coat protein
Test: apparent KD of MS2 coat protein; designed switch direction (-1 OFF switch, 1 ON switch): -1; higher = weaker reporter binding
Summary of the method: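 For each design, the apparent KD is the median over clusters of curves fitted to normalised cluster fluorescence. Clusters held RNA switches with common flanks, transcribed on Illumina chips by stalled E. coli RNA polymerase. These were titrated with SNAP-549-labelled MS2 coat protein, doubling from 0.7 or 1.5 nM to 3 µM, without input, with 200 uM small-molecule ligand, or with an oligonucleotide input.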

[1] = Eterna round: R95, input ligand: microRNA oligo, concentration not stated
[2] = input ligand: microRNA oligo, concentration not stated
[3] = Eterna round: R95, input ligand: FMN 200 uM
[4] = Eterna round: R95, input ligand: none

| Sequence | apparent KD of MS2 coat protein [1] [nM] | apparent KD of MS2 coat protein (input ligand: FMN 200 uM) [nM] | apparent KD of MS2 coat protein [2] [nM] | apparent KD of MS2 coat protein (input ligand: none) [nM] | apparent KD of MS2 coat protein [3] [nM] | apparent KD of MS2 coat protein [4] [nM] |
| --- | --- | --- | --- | --- | --- | --- |
| AACCGUGCGGAGGAUAUUGAUAUCCCAGUCUAUCAAGAAGGCUGCACAUGAGGAUCACCCAUGUGAUCCGUGCU [Riri] (puzzle: Exclusion 6) | 23.6 | – | – | – | – | – |
| AACCUCGGAGGAUAUACCUACCGAUUCACAAGUGUCACAUCACAUGAGGAUCACCCAUGUAGAAGGUCGAGGCG [Onorzais] (puzzle: Exclusion 2) | 30.1 | – | – | – | – | – |
| AACCUGAGGCUUUGCUUUAGGUGUACAUGAGGAUCACCCAUGUAGGAUAUGGUAGGCUUUGCUUACCAGAAGGACAUAAUGAUG [JL ENG3 1.16] (Eterna round: R96, puzzle: Exclusion NG 3) | – | 81.1 | 30.6 | 55.2 | – | – |
| AACCUGUCAGGAUAUCAAUUCUGUGCGUGACUACAGGACGCUGAGAAGGGACAUGAGGAUCACCCAUGUUGACU [Eternabot (Original) Solution 33] (Eterna round: R97, puzzle: Exclusion 4) | – | 24.7 | – | 26.8 | – | – |
| AACGUGGCUUAGGAUAUUGCUACGCAAAAGUAACAAGAAGGAGGCACAUGAGGAUCACCCAUGUGAUUCGUUGA [Ineror] (puzzle: Exclusion 6) | 14.8 | – | – | – | – | – |
| AACGUGUGAGGAUAUGCCGUGCCCUUCCGGAAGGAGCGGGUGCAGAAGGCACAUGAGGAUCACCCAUGUCGGCA [Excls4-V] (puzzle: Exclusion 4) | 31.4 | – | – | – | – | – |
| AACUCACAUGAGGAUCACCCAUGUGAGGAUAUGGUUUCGCUGGCCGUAGCCAGUGGAACCAGAAGGCGCGUGAU [Mat - Exclusion 1 - JL Mod - D26] (Eterna round: R97, puzzle: Exclusion 1) | – | 52.4 | – | 58.9 | – | – |
| AACUCAUGUUCAGGAUAUCGCGUUCCAAAGACAUGAGAAGGGAACAUGAGGAUCACCCAUGUGCCCGGUCUCAGACCGGGCUUC [Legebi] (Eterna round: R96, puzzle: Exclusion NG 1) | – | 272 | 71 | 97.1 | – | – |
| AACUCCUCAGGAUAUCUGAAAAUGGACAUGAGGAUCACCCAUGUGAAAGUCACAUCCGGAGGAGAAGGGAGGAGAA [Diororlera] (Eterna round: R97, puzzle: Exclusion 5) | – | 44.6 | – | 16 | – | – |
| AACUUCUGAGGAUAUACAUAGAUUUACAUGAGGAUCACCCAUGUUCCUCUAUGUAUAAAUGUAGAAGGCAGAAGAA [JL-ex5-4.37 Malcolm mod] (Eterna round: R97, puzzle: Exclusion 5) | – | 88.6 | – | 18.3 | – | – |
| AAGAAACAGCUAGGAUAUCAGACCAACAUGAGGAUCACCCAUGUCAAGGUCUUUCUUAGUAGGUUUGAGAAGGAGCCAUAAAUA [Xelequriqu] (Eterna round: R96, puzzle: Exclusion NG 2) | – | 11.7 | 9.11 | 11.2 | – | – |
| AAGAAACAUGAGGAUCACCCAUGUCAGGAUAUGAGAAGAAAGAAGAAGAAAGAAGGAAUCAGAAGGGACAAAGG [Ex 1 M6 Mod of Hoglahoo] (puzzle: Exclusion 1) | 51.7 | – | – | – | 45.5 | 41.8 |
| AAGAAACAUGAGGAUCACCCAUGUGAGGAUAUGAAAAAGAAAAGAAAAGAAAGAAGAAUCAGAAGGCACAAAGA [salish99-ex1_r3_080] (puzzle: Exclusion 1) | 22.2 | – | – | – | 26.9 | 27.1 |
| AAGAAACAUGAGGAUCACCCAUGUGAGGAUAUGAAAAAGAAAAGAAAAGAAAGAAGUAUCAGAAGGCACAAAGG [salish99-ex1_r3_023] (puzzle: Exclusion 1) | 38.6 | – | – | – | 57.6 | 62.8 |
| AAGAAACAUGAGGAUCACCCAUGUGAGGAUAUGAAAAAGAAAAGAAAAUAAAGAAGAAUCAGAAGGCACAAAGG [Mat - Mod of Hog D3] (puzzle: Exclusion 1) | 34.4 | – | – | – | 37.7 | 46.1 |
| AAGAAACAUGAGGAUCACCCAUGUGAGGAUAUGACAAAGAAAAGAAAAGAAAGAAGACUCAGAAGGCACAAAGG [salish99-ex1_r3_039] (puzzle: Exclusion 1) | 40.6 | – | – | – | 46.3 | 52 |

| Sequence | apparent KD of MS2 coat protein [1] [nM] | apparent KD of MS2 coat protein (input ligand: FMN 200 uM) [nM] | apparent KD of MS2 coat protein [2] [nM] | apparent KD of MS2 coat protein (input ligand: none) [nM] | apparent KD of MS2 coat protein [3] [nM] | apparent KD of MS2 coat protein [4] [nM] |
| --- | --- | --- | --- | --- | --- | --- |
| AAGAAACAUGAGGAUCACCCAUGUGAGGAUAUGACCAAGAAAAGAAAAGAAAGAAGAUUCAGAAGGCACAAAGG [salish99-ex1_r3_060] (puzzle: Exclusion 1) | 29.9 | – | – | – | 49.7 | 40.7 |
| AAGAAACAUGAGGAUCACCCAUGUGAGGAUAUGAGCAAGAAAAGAAAAGAAAGAAGAAUCAGAAGGCACAAAGG [salish99-ex1_r3_050] (Eterna round: R96, puzzle: Exclusion 1) | – | 68.5 | 31.7 | 37.4 | – | – |
| AAGAAACAUGAGGAUCACCCAUGUGAGGAUAUGAGCAAGAAAAGAAAAGAAAGAAGAAUCAGAAGGCACAAAGG [salish99-ex1_r3_050] (puzzle: Exclusion 1) | 1.1 | – | – | – | 6990 | 49.3 |
| AAGAAACAUGAGGAUCACCCAUGUGAGGAUAUGAGCACGCCGGUGACGGUGAUAAGAAUCAGAAGGCACAAAGG [JL-ex1-4.34 salish99 mod] (Eterna round: R97, puzzle: Exclusion 1) | – | 93 | – | 77.8 | – | – |
| AAGAAACAUGAGGAUCACCCAUGUGAGGAUAUGAGUAAGAAAAGAAAAGAAAGAAGACUCAGAAGGCACAAAGG [salish99-ex1_r3_074] (puzzle: Exclusion 1) | 110 | – | – | – | 135 | 86.8 |
| AAGAAACAUGAGGAUCACCCAUGUGAGGAUAUGUAAAAUAAAAGAAAAGAAAUAAUAAACAGAAGGCACAAAGG [Mat - Mod of Hog D15] (puzzle: Exclusion 1) | 30.9 | – | – | – | 52.1 | 41.4 |
| AAGAAACAUGAGGAUCACCCAUGUGAGGAUAUGUAAAAUAAAAGAAAAUAAAGAAGAAACAGAAGGCACAAAGG [Mat - Mod of Hog D22] (puzzle: Exclusion 1) | 36.1 | – | – | – | 40.3 | 33.7 |
| AAGAAAGAGUUAGGAUAUACAUGAGGAUCACCCAUGUGGUGGUAAAUCCGCUGGGUCGGUUCGAUGUAGAAGGAACAACCGCCG [Inisinlaon] (Eterna round: R96, puzzle: Exclusion NG 2) | – | 281 | 18.7 | 68.3 | – | – |
| AAGAACGUAGGAUAUACAUGAGGAUCACCCAUGUGAGGAAGGAGUAGGAAGUGUGGAAGUAGAAGGACGGAGAG [JR_Exclu3_Sub076] (puzzle: Exclusion 3) | 35.4 | – | – | – | 31.5 | 33.8 |
| AAGAAGAAACAAGCUUUUUGCACGUCAUAUAGUGACGCAACAUGAGGAUCACCCAUGUAUAGGGUGGGAAAGGAUAG [JR_SV3TOV2_Sub047] (Eterna round: R96, puzzle: Sensor v3, turn-off variant 2) | – | 669 | 352 | 826 | – | – |
| AAGAAGAAACAAGCUUUUUGCACGUCAUAUAGUGACGCAACAUGAGGAUCACCCAUGUAUAGGGUGGGAAAGGAUAG [JR_SV3TOV2_Sub047] (puzzle: Sensor v3, turn-off variant 2) | 70 | – | – | – | 338 | 423 |
| AAGAAGAUCAGAGGAUAUGGAGCUGAAACGGCGCUAGAAGGCUGUCUAGUGUAACAUGAGGAUCACCCAUGUAGGGACCUCUAA [EX ng 1 4.3] (Eterna round: R96, puzzle: Exclusion NG 1) | – | 874 | 795 | 884 | – | – |
| AAGAAGCGAGGAUAUACAUGAGGAUCACCCAUGUACCUCAUAAAGAAAAGAAAAGAAAGUAGAAGGCGCAAAAG [Default title] (puzzle: Exclusion 3) | 23.1 | – | – | – | 24.2 | 18.4 |
| AAGAAGCUAGGAUAUCACACUGACAACAUGAGGAUCACCCAUGUAGGUGAUCGGUUAGCUUGAGAAGGAGCGGAGG [Laedanes] (puzzle: Exclusion 5) | 46.9 | – | – | – | 83.5 | 78.3 |
| AAGAAGUCAGGAUAUACAUGAGGAUCACCCAUGUAAAAGAAAGAAAAGGGAAAGAAAAGUAGAAGGGACAAGAA [Menkheperre Thutmose III] (Eterna round: R96, puzzle: Exclusion 3) | – | 22.9 | 21.8 | 27.2 | – | – |
